This note sets out measurements from patent publication US20140087995A1 (published 2014).

Numbered stars: 1 amine (or outer) side, 2 acyl side, 3 side chain; on linkers, the order of the positions; unused ones are H or OH. Bridge positions count the residues as written; N and C are the ends. Side chains are listed from the residue outwards. Ends that are not written are not given here. * marks the point of attachment. C20 diacid = O=C(O)CCCCCCCCCCCCCCCCCCC(=O)*; C18 diacid = O=C(O)CCCCCCCCCCCCCCCCC(=O)*; C16 diacid = O=C(O)CCCCCCCCCCCCCCC(=O)*; γGlu = O=C(O)[C@H](CCC(=O)[*:2])N[*:1]; C14 diacid = O=C(O)CCCCCCCCCCCCC(=O)*

For assay [1], the target named is T1, human calcitonin receptor (human, UniProt P30988 25-474).
T1 construct: whole, on cells; Assay used cell membranes, not intact cells; also called hCTR; hCT
T1 sequence (looked up): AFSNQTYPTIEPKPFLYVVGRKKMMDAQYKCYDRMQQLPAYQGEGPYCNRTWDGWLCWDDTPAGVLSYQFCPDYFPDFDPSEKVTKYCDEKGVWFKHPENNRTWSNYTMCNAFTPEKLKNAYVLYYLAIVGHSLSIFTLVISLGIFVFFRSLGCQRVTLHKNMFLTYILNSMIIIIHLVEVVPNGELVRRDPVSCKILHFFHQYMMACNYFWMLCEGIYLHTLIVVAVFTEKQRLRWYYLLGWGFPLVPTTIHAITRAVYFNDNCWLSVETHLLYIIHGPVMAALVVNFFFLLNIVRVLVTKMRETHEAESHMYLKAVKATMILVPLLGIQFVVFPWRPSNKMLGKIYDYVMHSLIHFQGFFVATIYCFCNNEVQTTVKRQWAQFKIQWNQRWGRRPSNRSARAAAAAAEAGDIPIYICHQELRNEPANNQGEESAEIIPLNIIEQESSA
Briefly: ratio IC50 hCTR / IC50 hAmylin-R (reference: human amylin receptor), SPA competition assays. In short, it runs like this:
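Competition binding by SPA uses membrane preparations (35 ng/μL final) in pH 7.4 Hepes buffer with 1 mM CaCl2 and 5 mM MgCl₂. Incubation lasts 120 min at 25° C, and IC₅₀ comes from one-site fitting.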

For assay [2], the target named is T1, human calcitonin receptor. The assay is described as follows: SPA competition with 125I-calcitonin on membranes of BHK cells with human calcitonin receptor (Assay VII). In short, it runs like this:
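BHK hCTR membranes 35 ng/μL + SPA beads 0.05 mg/well; buffer 50 mM Hepes pH 7.4, 1 mM CaCl2, 5 mM MgCl₂, 0.1% OA, 0.02% Tween20. 120 min, 25° C., shaking. Scintillation count; IC50 by one-site binding competition.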

Assay [3] addresses T2, human amylin receptor (amylin 3(a) receptor: human calcitonin receptor with RAMP-3) (human, UniProt P30988 25-474; O60896 24-148).
T2 construct: whole, on cells; Assay used cell membranes of the Amylin 3(a)/CRE-luc BHK cells, not intact cells; also called hAmylin-R; hAmylinR
T2 sequence (looked up) 1: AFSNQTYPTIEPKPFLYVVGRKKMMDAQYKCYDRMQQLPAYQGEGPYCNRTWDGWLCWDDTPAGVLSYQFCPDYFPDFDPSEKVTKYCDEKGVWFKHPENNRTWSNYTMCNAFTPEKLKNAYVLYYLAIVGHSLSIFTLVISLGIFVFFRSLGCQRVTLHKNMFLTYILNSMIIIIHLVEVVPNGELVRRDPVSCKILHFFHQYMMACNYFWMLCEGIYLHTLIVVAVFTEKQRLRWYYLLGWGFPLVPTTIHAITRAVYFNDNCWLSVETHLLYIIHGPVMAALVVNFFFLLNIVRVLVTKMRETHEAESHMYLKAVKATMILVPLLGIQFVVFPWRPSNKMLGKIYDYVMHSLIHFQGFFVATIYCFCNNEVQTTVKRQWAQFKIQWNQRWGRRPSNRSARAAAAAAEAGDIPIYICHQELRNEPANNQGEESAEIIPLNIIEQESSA
T2 sequence (looked up) 2: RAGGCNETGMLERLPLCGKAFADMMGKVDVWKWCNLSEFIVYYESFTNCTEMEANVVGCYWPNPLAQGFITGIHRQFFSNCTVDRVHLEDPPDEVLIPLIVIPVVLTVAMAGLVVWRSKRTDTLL
The assay is described as follows: SPA competition with 125I-rat amylin on membranes of BHK cells with human calcitonin receptor and RAMP-3 (Assay V). An outline of the steps: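 One-site competition analysis of SPA counts yielded IC₅₀ as a measure of affinity. Membranes were at 35 ng/μL final; incubation was 120 min at 25° C, pH 7.4.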

B1: N^ε1-[(4S)-4-carboxy-4-(13-carboxytridecanoylamino)butanoyl]-[Arg17,Pro21,Pro27,His34]-h-amylin (peptide)
peptide: K([γGlu-C14 diacid])CNTATCATQRLANFLRHSSPNFGAIPSSTNVGHNTY-NH2
modifications: disulfide 2-7; N-terminus assumed
SMILES: CC[C@H](C)[C@H](NC(=O)[C@H](C)NC(=O)CNC(=O)[C@H](Cc1ccccc1)NC(=O)[C@H](CC(N)=O)NC(=O)[C@@H]1CCCN1C(=O)[C@H](CO)NC(=O)[C@H](CO)NC(=O)[C@H](Cc1c[nH]cn1)NC(=O)[C@H](CCCNC(=N)N)NC(=O)[C@H](CC(C)C)NC(=O)[C@H](Cc1ccccc1)NC(=O)[C@H](CC(N)=O)NC(=O)[C@H](C)NC(=O)[C@H](CC(C)C)NC(=O)[C@H](CCCNC(=N)N)NC(=O)[C@H](CCC(N)=O)NC(=O)[C@@H](NC(=O)[C@H](C)NC(=O)[C@@H]1CSSC[C@H](NC(=O)[C@@H](N)CCCCNC(=O)CC[C@H](NC(=O)CCCCCCCCCCCCC(=O)O)C(=O)O)C(=O)N[C@@H](CC(N)=O)C(=O)N[C@@H]([C@@H](C)O)C(=O)N[C@@H](C)C(=O)N[C@@H]([C@@H](C)O)C(=O)N1)[C@@H](C)O)C(=O)N1CCC[C@H]1C(=O)N[C@@H](CO)C(=O)N[C@@H](CO)C(=O)N[C@H](C(=O)N[C@@H](CC(N)=O)C(=O)N[C@H](C(=O)NCC(=O)N[C@@H](Cc1c[nH]cn1)C(=O)N[C@@H](CC(N)=O)C(=O)N[C@H](C(=O)N[C@@H](Cc1ccc(O)cc1)C(N)=O)[C@@H](C)O)C(C)C)[C@@H](C)O
With B1, in assay [1], the “Ratio hCT/hAmylin binding” value came to 23.5. The IC50 – broadly, the concentration at which inhibition is half-maximal – in assay [2] was found to be 24.3 nM; in assay [3], 1.04 nM.

B2: N^ε1-[(4S)-4-carboxy-4-(19-carboxynonadecanoylamino)butanoyl]-[Ala14,Arg17,Pro21,Pro27,Pro34]-h-amylin (peptide)
peptide: K([γGlu-C20 diacid])CNTATCATQRLAAFLRHSSPNFGAIPSSTNVGPNTY-NH2
modifications: disulfide 2-7; N-terminus assumed
SMILES: CC[C@H](C)[C@H](NC(=O)[C@H](C)NC(=O)CNC(=O)[C@H](Cc1ccccc1)NC(=O)[C@H](CC(N)=O)NC(=O)[C@@H]1CCCN1C(=O)[C@H](CO)NC(=O)[C@H](CO)NC(=O)[C@H](Cc1c[nH]cn1)NC(=O)[C@H](CCCNC(=N)N)NC(=O)[C@H](CC(C)C)NC(=O)[C@H](Cc1ccccc1)NC(=O)[C@H](C)NC(=O)[C@H](C)NC(=O)[C@H](CC(C)C)NC(=O)[C@H](CCCNC(=N)N)NC(=O)[C@H](CCC(N)=O)NC(=O)[C@@H](NC(=O)[C@H](C)NC(=O)[C@@H]1CSSC[C@H](NC(=O)[C@@H](N)CCCCNC(=O)CC[C@H](NC(=O)CCCCCCCCCCCCCCCCCCC(=O)O)C(=O)O)C(=O)N[C@@H](CC(N)=O)C(=O)N[C@@H]([C@@H](C)O)C(=O)N[C@@H](C)C(=O)N[C@@H]([C@@H](C)O)C(=O)N1)[C@@H](C)O)C(=O)N1CCC[C@H]1C(=O)N[C@@H](CO)C(=O)N[C@@H](CO)C(=O)N[C@H](C(=O)N[C@@H](CC(N)=O)C(=O)N[C@H](C(=O)NCC(=O)N1CCC[C@H]1C(=O)N[C@@H](CC(N)=O)C(=O)N[C@H](C(=O)N[C@@H](Cc1ccc(O)cc1)C(N)=O)[C@@H](C)O)C(C)C)[C@@H](C)O
notes: also called compound 94
On to B2, for which, in assay [1], the “Ratio hCT/hAmylin binding” value came to 46.3. Besides, the IC50 in assay [2] turned out to be 6.86 nM; in assay [3], 0.148 nM.

B3: N^ε1-[(4S)-4-carboxy-4-(17-carboxyheptadecanoylamino)butanoyl]-[Arg17,Pro21,Pro27,His34]-h-amylin (peptide)
peptide: K([γGlu-C18 diacid])CNTATCATQRLANFLRHSSPNFGAIPSSTNVGHNTY-NH2
modifications: disulfide 2-7; N-terminus assumed
SMILES: CC[C@H](C)[C@H](NC(=O)[C@H](C)NC(=O)CNC(=O)[C@H](Cc1ccccc1)NC(=O)[C@H](CC(N)=O)NC(=O)[C@@H]1CCCN1C(=O)[C@H](CO)NC(=O)[C@H](CO)NC(=O)[C@H](Cc1c[nH]cn1)NC(=O)[C@H](CCCNC(=N)N)NC(=O)[C@H](CC(C)C)NC(=O)[C@H](Cc1ccccc1)NC(=O)[C@H](CC(N)=O)NC(=O)[C@H](C)NC(=O)[C@H](CC(C)C)NC(=O)[C@H](CCCNC(=N)N)NC(=O)[C@H](CCC(N)=O)NC(=O)[C@@H](NC(=O)[C@H](C)NC(=O)[C@@H]1CSSC[C@H](NC(=O)[C@@H](N)CCCCNC(=O)CC[C@H](NC(=O)CCCCCCCCCCCCCCCCC(=O)O)C(=O)O)C(=O)N[C@@H](CC(N)=O)C(=O)N[C@@H]([C@@H](C)O)C(=O)N[C@@H](C)C(=O)N[C@@H]([C@@H](C)O)C(=O)N1)[C@@H](C)O)C(=O)N1CCC[C@H]1C(=O)N[C@@H](CO)C(=O)N[C@@H](CO)C(=O)N[C@H](C(=O)N[C@@H](CC(N)=O)C(=O)N[C@H](C(=O)NCC(=O)N[C@@H](Cc1c[nH]cn1)C(=O)N[C@@H](CC(N)=O)C(=O)N[C@H](C(=O)N[C@@H](Cc1ccc(O)cc1)C(N)=O)[C@@H](C)O)C(C)C)[C@@H](C)O
B3: in assay [1], the “Ratio hCT/hAmylin binding” value amounted to 59.4. Also, the IC50 in assay [2] amounted to 22.7 nM; in assay [3], 0.382 nM.

B4: N^ε1-[(4S)-4-carboxy-4-(19-carboxynonadecanoylamino)butanoyl]-[Ala14,Arg17,Pro21,Pro27,His34]-h-amylin (peptide)
peptide: K([γGlu-C20 diacid])CNTATCATQRLAAFLRHSSPNFGAIPSSTNVGHNTY-NH2
modifications: disulfide 2-7; N-terminus assumed
SMILES: CC[C@H](C)[C@H](NC(=O)[C@H](C)NC(=O)CNC(=O)[C@H](Cc1ccccc1)NC(=O)[C@H](CC(N)=O)NC(=O)[C@@H]1CCCN1C(=O)[C@H](CO)NC(=O)[C@H](CO)NC(=O)[C@H](Cc1c[nH]cn1)NC(=O)[C@H](CCCNC(=N)N)NC(=O)[C@H](CC(C)C)NC(=O)[C@H](Cc1ccccc1)NC(=O)[C@H](C)NC(=O)[C@H](C)NC(=O)[C@H](CC(C)C)NC(=O)[C@H](CCCNC(=N)N)NC(=O)[C@H](CCC(N)=O)NC(=O)[C@@H](NC(=O)[C@H](C)NC(=O)[C@@H]1CSSC[C@H](NC(=O)[C@@H](N)CCCCNC(=O)CC[C@H](NC(=O)CCCCCCCCCCCCCCCCCCC(=O)O)C(=O)O)C(=O)N[C@@H](CC(N)=O)C(=O)N[C@@H]([C@@H](C)O)C(=O)N[C@@H](C)C(=O)N[C@@H]([C@@H](C)O)C(=O)N1)[C@@H](C)O)C(=O)N1CCC[C@H]1C(=O)N[C@@H](CO)C(=O)N[C@@H](CO)C(=O)N[C@H](C(=O)N[C@@H](CC(N)=O)C(=O)N[C@H](C(=O)NCC(=O)N[C@@H](Cc1c[nH]cn1)C(=O)N[C@@H](CC(N)=O)C(=O)N[C@H](C(=O)N[C@@H](Cc1ccc(O)cc1)C(N)=O)[C@@H](C)O)C(C)C)[C@@H](C)O
notes: also called compound 93
As for B4, the “Ratio hCT/hAmylin binding” value in assay [1] came out at 101. The IC50 in assay [2] was 17.8 nM; in assay [3], 0.176 nM.

B5: N^ε1-[(4S)-4-carboxy-4-(15-carboxypentadecanoylamino)butanoyl]-[Arg17,Pro21,Pro27,His34]-h-amylin (peptide)
peptide: K([γGlu-C16 diacid])CNTATCATQRLANFLRHSSPNFGAIPSSTNVGHNTY-NH2
modifications: disulfide 2-7; N-terminus assumed
SMILES: CC[C@H](C)[C@H](NC(=O)[C@H](C)NC(=O)CNC(=O)[C@H](Cc1ccccc1)NC(=O)[C@H](CC(N)=O)NC(=O)[C@@H]1CCCN1C(=O)[C@H](CO)NC(=O)[C@H](CO)NC(=O)[C@H](Cc1c[nH]cn1)NC(=O)[C@H](CCCNC(=N)N)NC(=O)[C@H](CC(C)C)NC(=O)[C@H](Cc1ccccc1)NC(=O)[C@H](CC(N)=O)NC(=O)[C@H](C)NC(=O)[C@H](CC(C)C)NC(=O)[C@H](CCCNC(=N)N)NC(=O)[C@H](CCC(N)=O)NC(=O)[C@@H](NC(=O)[C@H](C)NC(=O)[C@@H]1CSSC[C@H](NC(=O)[C@@H](N)CCCCNC(=O)CC[C@H](NC(=O)CCCCCCCCCCCCCCC(=O)O)C(=O)O)C(=O)N[C@@H](CC(N)=O)C(=O)N[C@@H]([C@@H](C)O)C(=O)N[C@@H](C)C(=O)N[C@@H]([C@@H](C)O)C(=O)N1)[C@@H](C)O)C(=O)N1CCC[C@H]1C(=O)N[C@@H](CO)C(=O)N[C@@H](CO)C(=O)N[C@H](C(=O)N[C@@H](CC(N)=O)C(=O)N[C@H](C(=O)NCC(=O)N[C@@H](Cc1c[nH]cn1)C(=O)N[C@@H](CC(N)=O)C(=O)N[C@H](C(=O)N[C@@H](Cc1ccc(O)cc1)C(N)=O)[C@@H](C)O)C(C)C)[C@@H](C)O
Turning to B5, in assay [1], the “Ratio hCT/hAmylin binding” value is 18.5. The figures for the half-inhibitory concentration (IC50) in assay [2] and in assay [3] were 10.8 nM and 0.58 nM, respectively.
